The target of this assay is H3K9me3 peptide (1–17). Put plainly: ITC, H3K9me3 peptide (1-17) titrated into UHRF1 proteins. Type of assay: binding. To be noted: ITC, 18 °C, named protein 0.05 mM in cell, H3K9me3 (1-17) 0.5 mM in syringe, 10 mM HEPES pH 8.0, 100 mM NaCl. Here is the method:
For competition ITC experiments: the indicated proteins were pre-incubated with competitive peptide, protein or hm-DNA (at 1:2 molar ratio if not specified) for 10 min followed by ITC measurements as described above. Proteins, DNA and peptides were prepared within ITC buffer containing 10 mM HEPES, pH 8.0, 100 mM NaCl. The data were fitted by software Origin 7.0. All ITC results were summarized in Supplementary Table 2 and raw data were shown in Supplementary Fig. 9.
Background: ITC needs no label: the signal is the heat of the interaction.

This is an account of results in publication PMC4822050, “Hemi-methylated DNA opens a closed conformation of UHRF1 to facilitate its histone recognition” (Nature Communications, 2016).

B1: UHRF1D334A&∆627-674: UHRF1 with mutation D334A and deletion of residues 627–674 (protein)
chain: MWIQVRTMDGRQTHTVDSLSRLTKVEELRRKIQELFHVEPGLQRLFYRGKQMEDGHTLFDYEVRLNDTIQLLVRQSLVLPHSTKERDSELSDTDSGCCLGQSESDKSSTHGEAAAETDSRPADEDMWDETELGLYKVNEYVDARDTNMGAWFEAQVVRVTRKAPSRDEPCSSTSRPALEEDVIYHVKYDDYPENGVVQMNSRDVRARARTIIKWQDLEVGQVVMLNYNPDNPKERGFWYDAEISRKRETRTARELYANVVLGDDSLNDCRIIFVDEVFKIERPGEGSPMVDNPMRRKSGPSCKHCKDDVNRLCRVCACHLCGGRQDPDKQLMCAECDMAFHIYCLDPPLSSVPSEDEWYCPECRNDASEVVLAGERLRESKKKAKMASATSSSQRDWGKGMACVGRTKECTIVPSNHYGPIPGIPVGTMWRFRVQVSESGVHRPHVAGIHGRSNDGAYSLVLAGGYEDDVDHGNFFTYTGSGGRDLSGNKRTAEQSCDQKLTNTNRALALNCFAPINDQEGAEAKDWRSGKPVRVVRNVKGGKNSKYAPAEGNRYDGIYKVVKYWPEKGKSGFLVWRYLLRRDDDEPGPWTKEGKDRIKKLGLTMQYPEGYLEALANREREKENSKSLTAQQSSLIREDKSNAKLWNEVLASLKDRPASGSPFQLFLSKVEETFQCICCQELVFRPITTVCQHNVCKDCLDRSFRAQVFSCPACRYDLGRSYAMQVNQPLQTVLNQLFPGYGNGR
modifications: left off: GST, end not stated, cleaved
As usually defined, the Kd is the concentration at which binding is half-saturated. In the case of B1, under “read-out: KD”, the Kd came out at 8.69 µM.

B2: UHRF1D334A: UHRF1 mutant D334A, which abolishes H3R2-binding affinity of the PHD (protein)
chain: MWIQVRTMDGRQTHTVDSLSRLTKVEELRRKIQELFHVEPGLQRLFYRGKQMEDGHTLFDYEVRLNDTIQLLVRQSLVLPHSTKERDSELSDTDSGCCLGQSESDKSSTHGEAAAETDSRPADEDMWDETELGLYKVNEYVDARDTNMGAWFEAQVVRVTRKAPSRDEPCSSTSRPALEEDVIYHVKYDDYPENGVVQMNSRDVRARARTIIKWQDLEVGQVVMLNYNPDNPKERGFWYDAEISRKRETRTARELYANVVLGDDSLNDCRIIFVDEVFKIERPGEGSPMVDNPMRRKSGPSCKHCKDDVNRLCRVCACHLCGGRQDPDKQLMCAECDMAFHIYCLDPPLSSVPSEDEWYCPECRNDASEVVLAGERLRESKKKAKMASATSSSQRDWGKGMACVGRTKECTIVPSNHYGPIPGIPVGTMWRFRVQVSESGVHRPHVAGIHGRSNDGAYSLVLAGGYEDDVDHGNFFTYTGSGGRDLSGNKRTAEQSCDQKLTNTNRALALNCFAPINDQEGAEAKDWRSGKPVRVVRNVKGGKNSKYAPAEGNRYDGIYKVVKYWPEKGKSGFLVWRYLLRRDDDEPGPWTKEGKDRIKKLGLTMQYPEGYLEALANREREKENSKREEEEQQEGGFASPRTGKGKWKRKSAGGGPSRAGSPRRTSKKTKVEPYSLTAQQSSLIREDKSNAKLWNEVLASLKDRPASGSPFQLFLSKVEETFQCICCQELVFRPITTVCQHNVCKDCLDRSFRAQVFSCPACRYDLGRSYAMQVNQPLQTVLNQLFPGYGNGR
modifications: left off: GST, end not stated, cleaved
As to B2, the KD result is on record as “undetectable”.
